A short description of data set [1]: Secondary structure by Fourier Transform Infrared Spectroscopy (FTIR). Type of data set: physicochemical. To be noted: for alpha helix percent 1657 cm^-1 / beta sheet character percent 1624 + 1696 cm^-1: Samples 1-5 before and 1A-5A after base excursion pH 12.3, Table 2; for 1624 + 1696 cm^-1 total beta sheet, % / 1657 cm^-1 Alpha helix, %: purified, lyophilized batches, Table 1; for percent alpha helix content / percent beta sheet content: Table 3, pH 10.5 excursion experiment. How it is done: Four different batches of purified, lyophilized Val-8 GLP-1(7-37)OH were analyzed for secondary structure characteristics by Fourier Transform Infra-red Spectroscopy (FTIR) to assess alpha helix and beta sheet content of the preparations. Deconvolution was done on the Amide I region (1750-1600 cm^−1) using BioRad Win-IR Pro Software version 2.5. The results are shown below in the Table 1:
Each of Samples 1-5 was measured for secondary structure characteristics by Fourier Transform Infrared Spectroscopy (FTIR). In addition, each Sample 1-5 was placed into 20 mM phosphate solution (pH 7.2) and the pH raised to 12.3 by addition of 1N sodium hydroxide for no more than 3 minutes. All samples then dissolved and the solutions became clear. The pH of each solution was then adjusted to 7.0 by addition of 1N hydrochloric acid. Samples 1A-5A, obtained from Samples 1-5, respectively, were then obtained by lyophilization of the solutions and dried in vacuo. The secondary structural characteristics of Samples 1A-5A were assessed by FTIR. The results of the FTIR analysis of Samples 1-5 and 1A-5A are shown below in Table 2:
In another example of the effects of base excursion on secondary structure, a purified, lyophilized sample of Val^8-GLP-1(7-37)OH purified by reversed chromatography was either lyophilized (0.1 gram) or precipitated by addition of sufficient 3.0 M sodium dihydrogen phosphate (pH 3.80) to result in a 0.6 M phosphate solution. The resultant precipitate was washed with 10 mM sodium acetate at pH 5.5 and the washed precipitate was dried in vacuo. A second portion of the washed precipitate was solubilized by raising the pH of the material to 10.5 for 30 minutes at room temperature by addition of 1N sodium hydroxide. The pH of that solution was then reduced to 7.0 by addition of 1.0 N hydrochloric acid and the solution was then lyophilized. The secondary structure of the three samples was determined by FTIR.

Data set [2] in a line: physchem. Type of data set: physicochemical. The protocol:
Val^8-GLP-1(7-37)OH (1 gram) lyophilized powder was dissolved in 25 mM ammonium bicarbonate, pH 8.0 (100 ml). The solution was stirred with a TEFLON stir bar at about 200 rpm at 21° C. (ambient temperature) for 16 hours. At varying times, usually within 30 minutes, the solution became hazy. On continued stirring, the haze became visibly more dense. The kinetics of the turbidity were measured by rate of formation of turbidity, i.e. absorbance at 340 nm. The precipitated protein was harvested either by filtration, e.g. Whatman 1 filter disc, or centrifugation. The supernatant was assayed for protein content either by Biuret Colorimetric Assay obtained from Pierce (Rockford, Ill.) or UV absorbance at 280 nm. By either method, the protein precipitate constituted in excess of 90% of the starting material, i.e. there was less than 10% of the protein remaining in the supernatant fraction. The collected precipitate was dried in vacuo, i.e. in a lyophilizer. The resultant precipitated (0.96 grams) material was soluble in 20 mM phosphate at pH 7.2 at less than 0.01 mg/ml. Solubility was tested by suspension of the solid in the buffer, adjustment of pH, if necessary, and filtration through a 0.2 micron filter. The protein content of the filtrate was tested by either Biuret Colorimetric Assay, UV absorbance at 280 nm, or by high pressure liquid chromatography analysis (HPLC) analysis. […]

Bounds are passed on as bounds.

Consider “Sample 1: Val^8-GLP-1(7-37)OH isoelectric precipitate at pH 5.5 from 10 mM acetic acid”, for which, in data set [1], the “alpha helix percent 1657 cm^-1” value is reported as 24.9%; the “beta sheet character percent 1624 + 1696 cm^-1” value is on record as 69.8%; the “1624 + 1696 cm^-1 total beta sheet, %” value is on record as 31.4%; the “1657 cm^-1 Alpha helix, %” value worked out at 62.7%.

“5A: Sample 5 after pH 12.3 excursion, neutralized to 7.0 and lyophilized [Sample 5A]”: in data set [1], the “alpha helix percent 1657 cm^-1” value is listed as 90.6% and the “beta sheet character percent 1624 + 1696 cm^-1” value was “none observed”.

Regarding “Lyophilized mainstream: Val^8-GLP-1(7-37)OH purified by reversed chromatography and lyophilized”, in data set [1], the “percent alpha helix content” value is 71% and the “percent beta sheet content” value is recorded as 16%.

For “2A: Sample 2 after pH 12.3 excursion, neutralized to 7.0 and lyophilized [Sample 2A]”, in data set [1], the “alpha helix percent 1657 cm^-1” value was determined as 85.9% and the “beta sheet character percent 1624 + 1696 cm^-1” value is listed as “none observed”.

For “3A: Sample 3 after pH 12.3 excursion, neutralized to 7.0 and lyophilized [Sample 3A]”, in data set [1], the “alpha helix percent 1657 cm^-1” value came out at 62.2% and the “beta sheet character percent 1624 + 1696 cm^-1” value is listed as 23.7%.

As to “Sample 4: soluble fraction of Val^8-GLP-1(7-37)OH stirred in 10 mM phosphate pH 7.2”, in data set [1], the “alpha helix percent 1657 cm^-1” value amounted to 75.8%; the “beta sheet character percent 1624 + 1696 cm^-1” value is given as 14.7%; the “1624 + 1696 cm^-1 total beta sheet, %” value amounted to 28.9%; the “1657 cm^-1 Alpha helix, %” value worked out at 63.6%.

Turning to “4A: Sample 4 after pH 12.3 excursion, neutralized to 7.0 and lyophilized [Sample 4A]”, in data set [1], the “alpha helix percent 1657 cm^-1” value is 86.0% and the “beta sheet character percent 1624 + 1696 cm^-1” value is “none observed”.

As to “Phosphate precipitate: Val^8-GLP-1(7-37)OH precipitated in 0.6 M phosphate, washed and dried in vacuo”, in data set [1], the “percent alpha helix content” value is reported as 57% and the “percent beta sheet content” value amounted to 35%.

“Sample 3: gelled Val^8-GLP-1(7-37)OH from acetic acid/25% acetonitrile incubated at 4 C for 3.1 months”: in data set [1], the “alpha helix percent 1657 cm^-1” value is 25.5%; the “beta sheet character percent 1624 + 1696 cm^-1” value was found to be 70.0%; the “1624 + 1696 cm^-1 total beta sheet, %” value is reported as 30.6%; the “1657 cm^-1 Alpha helix, %” value turned out to be 63.6%.

For “pH 10.5 excursion: washed phosphate precipitate solubilized at pH 10.5 for 30 minutes, reduced to pH 7.0, lyophilized”, in data set [1], the “percent alpha helix content” value was found to be 71% and the “percent beta sheet content” value came to 13%.

As for `CC[C@H](C)[C@H](NC(=O)[C@H](Cc1ccccc1)NC(=O)[C@H](CCC(=O)O)NC(=O)[C@H](CCCCN)NC(=O)[C@H](C)NC(=O)[C@H](C)NC(=O)[C@H](CCC(N)=O)NC(=O)CNC(=O)[C@H](CCC(=O)O)NC(=O)[C@H](CC(C)C)NC(=O)[C@H](Cc1ccc(O)cc1)NC(=O)[C@H](CO)NC(=O)[C@H](CO)NC(=O)[C@@H](NC(=O)[C@H](CC(=O)O)NC(=O)[C@H](CO)NC(=O)[C@@H](NC(=O)[C@H](Cc1ccccc1)NC(=O)[C@@H](NC(=O)CNC(=O)[C@H](CCC(=O)O)NC(=O)[C@H](C)NC(=O)[C@@H](N)Cc1c[nH]cn1)[C@@H](C)O)[C@@H](C)O)C(C)C)C(=O)N[C@@H](C)C(=O)N[C@@H](Cc1c[nH]c2ccccc12)C(=O)N[C@@H](CC(C)C)C(=O)N[C@H](C(=O)N[C@@H](CCCCN)C(=O)NCC(=O)N[C@@H](CCCN=C(N)N)C(=O)NCC(=O)O)C(C)C` [GLP-1(7-37)OH], the solubility (thermodynamic) (as a rule, solubility found after equilibrating the solid with the medium) was under 100 µg/mL in data set [2] (solubility) and under 50 µg/mL in data set [2] (solubility (usually)).

For “Sample 5: precipitated fraction of Val^8-GLP-1(7-37)OH stirred in 10 mM phosphate pH 7.2”, in data set [1], the “alpha helix percent 1657 cm^-1” value is recorded as 12.9% and the “beta sheet character percent 1624 + 1696 cm^-1” value stood at 57.3%.

As to “Sample 2: Val^8-GLP-1(7-37)OH isoelectric precipitate approaching pH 5.5 from the alkaline side”, in data set [1], the “alpha helix percent 1657 cm^-1” value is listed as 51.9%; the “beta sheet character percent 1624 + 1696 cm^-1” value stood at 40.5%; the “1624 + 1696 cm^-1 total beta sheet, %” value amounted to 29.3%; the “1657 cm^-1 Alpha helix, %” value is listed as 62.8%.

These data come from patent US8455433B2, “Process for solubilizing glucagon-like peptide 1 compounds” (Eli Lilly and Company, priority 2000, dated 2013).
